Measurements published in patent US20040204434A1, “Compounds and methods for lowering the abuse potential and extending the duration of action of a drug” (Controlled Chemicals Inc., priority 2003, published 2004).

Assays:
[1] = Nonenzymatic hydrolysis of oxycodone ester prodrugs to oxycodone in buffered solution (HPLC); type: physicochemical; details: pH 7, 37° C.
μ (rat) opioid receptor [2] = target: T1, μ (rat) opioid receptor (Rattus norvegicus, UniProt P33535); assay: Inhibition of radio labeled ligand binding to membranes from C6 rat glioma cells expressing recombinant μ opioid receptor; details: in words
T1 construct: expressed in transfected cells; host or cells: C6 rat glioma cells (membranes)
T1 sequence (P33535 whole entry): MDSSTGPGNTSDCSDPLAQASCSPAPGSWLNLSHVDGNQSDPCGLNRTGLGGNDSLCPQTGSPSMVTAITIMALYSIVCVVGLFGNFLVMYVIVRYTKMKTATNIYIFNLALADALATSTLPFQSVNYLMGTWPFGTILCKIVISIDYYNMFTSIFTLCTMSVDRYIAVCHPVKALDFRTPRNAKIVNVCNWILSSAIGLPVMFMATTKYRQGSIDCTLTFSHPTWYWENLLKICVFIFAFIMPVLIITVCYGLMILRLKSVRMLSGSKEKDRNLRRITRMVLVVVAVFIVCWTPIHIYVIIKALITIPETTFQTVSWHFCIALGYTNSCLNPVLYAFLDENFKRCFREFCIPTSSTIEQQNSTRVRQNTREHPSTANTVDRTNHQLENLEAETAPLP
Protocol: (§1) Opioid-agonist activity was evaluated from the ability of the test article to stimulate [^35S]-GTP's binding.

μ (rat) opioid receptor [3] = target: T1, μ (rat) opioid receptor; assay: Opioid-agonist activity: stimulation of [35S]-GTP's binding; type: biochemical
Protocol: as §1

Pancreatin = assay: Effect of pancreatin on release of oxycodone from prodrugs; details: in words
[4] = Release of oxycodone from prodrugs without pancreatin; details: 37° C., pH 7.4, no pancreatin

Row | Compound | Effect of pancreatic enzymes on liberation of oxycodone from prodrug (Pancreatin) | Half-Life for Hydrolysis, no pancreatin [4] [h] | further results
1 | COc1ccc2c3c1OC1C(OC(C)=O)=CCC4(O)C(C2)N(C)CCC314 (stereo not shown) [6-enolacetate] |  |  | half-life for hydrolysis [1]: ~96 h
2 | COc1ccc2c3c1O[C@H]1C(=O)CC[C@@]4(OC(C)=O)[C@@H](C2)N(C)CC[C@]314 [14-acetate ester of oxycodone] |  |  | half-life for the hydrolysis [1]: ~0.333 h
3 | COc1ccc2c3c1O[C@H]1C(OC(=O)C(CCC(=O)O)NC(=O)OCc4ccccc4)=CC[C@@]4(O)[C@@H](C2)N(C)CC[C@]314 (stereo partly drawn) [Compound 1, 2-(benzyloxycarbonylamino)-pentanedioic acid 1-(3-methoxy-14-hydroxy-6,7-didehydro-4,5α-epoxy-17-methylmorphinan-6-yl) ester] |  |  | affinity for the μ receptor relative to oxycodone (μ (rat) opioid receptor [2]): substantially lower; EC50 (μ (rat) opioid receptor [3]): 3.38 ± 0.29 µM
4 | poly(ethylene glycol), Mr 2,000, methyl ether, N-carbonylglutamic acid 1-(3-methoxy-14-hydroxy-6,7-didehydro-4,5α-epoxy-17-methylmorphinan-6-yl) ester [Compound 4] | do not markedly effect | 5.5 | 
5 | poly(ethylene glycol), Mr 2,000, methyl ether, carbonylimidodiacetic acid mono-(3-methoxy-14-hydroxy-6,7-didehydro-4,5α-epoxy-17-methylmorphinan-6-yl) ester [Compound 5] | do not markedly effect | 11 | 
6 | poly(ethylene glycol), Mr 2,000, methyl ether, carboxy ((3-methoxy-14-hydroxy-6,7-didehydro-4,5α-epoxy-17-methylmorphinan-6-yl) ester) methyl ether [Compound 8] | markedly enhanced | 6.9 | 
